# Target: α-synuclein aggregates (small fibrils, oligomeric/protofibrillary species) formed in the aggregation reaction (UniProt P37840)
substance,measurement,value
human serum high-density lipoprotein (HDL) (complex),"diagnostic α-syn SAA on PD CSF, increase of the time to reach the fluorescence threshold of 5000 a.u. (TTT) against neat samples, HDL at 2X (~ 24%) and 5X the CSF physiological concentration",55%
